Source: publication PMC11325224, “Organophosphorus S-adenosyl-L-methionine mimetics: synthesis, stability, and substrate properties” (Frontiers in Chemistry, 2024)
Where a name gives a salt, the structure may show the parent alone.

Experiments:
CI = test system: T1, CI; assay: Michaelis-Menten kinetics of SAH-PH methylation; assay type: biochemical, Arabidopsis thaliana; settings: co-substrate rac-SAH-PH
T1 construct: engineered variant V140T, recombinant; expression details only in supplement

WBSCR27 = target: T2, WBSCR27 (Mus musculus, UniProt Q8BGM4); assay: 1H, […] HSQC NMR titration; assay type: binding; settings: 15N-labelled apo protein 0.2 mM, ligand 1:1 to 1:5; cofactor site
T2 construct: gene Mettl27; recombinant, 15N-labelled; purification details only in supplement
T2 sequence (Q8BGM4 1-238): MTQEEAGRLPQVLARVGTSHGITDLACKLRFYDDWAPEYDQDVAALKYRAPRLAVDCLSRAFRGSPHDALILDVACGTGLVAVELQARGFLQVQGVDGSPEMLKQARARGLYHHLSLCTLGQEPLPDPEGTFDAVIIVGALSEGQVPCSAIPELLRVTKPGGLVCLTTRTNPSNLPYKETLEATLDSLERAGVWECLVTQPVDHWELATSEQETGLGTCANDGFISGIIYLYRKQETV

1H,15N HSQC NMR titration (WBSCR27) | Compound | Km (CI) [mM] | kcat (CI) [s⁻¹]
– | AtHMT^V140T (Arabidopsis thaliana; V140T) | 5.3 ± 3 | 0.3 ± 0.033
WBSCR27 strongly binds to SAM-P H | C[S+](CCC(N)[PH](=O)O)C[C@H]1O[C@@H](n2cnc3c(N)ncnc32)[C@H](O)[C@@H]1O (mixture of isomers) [rac-SAM-PH, 5′-{S-[3-Amino-3-(hydrohydroxyphosphoryl)propy]-S-methylthionia}-5′-deoxyadenosine hydrochloride] | – | –
